Measured values as given in patent publication US8846873B2, “Antibodies directed to GPNMB and uses thereof” (Celldex Therapeutics, Inc., priority 2004, dated 2014).

Legend:
GPNMB = target: T1, GPNMB (Homo sapiens, UniProt Q14956); assay: Binning of antibodies (Luminex competitive binding); settings: three bins of six anti-GPNMB antibodies
T1 construct: made in house; host or cells: HEK 293
T1 sequence (Q14956 23-492): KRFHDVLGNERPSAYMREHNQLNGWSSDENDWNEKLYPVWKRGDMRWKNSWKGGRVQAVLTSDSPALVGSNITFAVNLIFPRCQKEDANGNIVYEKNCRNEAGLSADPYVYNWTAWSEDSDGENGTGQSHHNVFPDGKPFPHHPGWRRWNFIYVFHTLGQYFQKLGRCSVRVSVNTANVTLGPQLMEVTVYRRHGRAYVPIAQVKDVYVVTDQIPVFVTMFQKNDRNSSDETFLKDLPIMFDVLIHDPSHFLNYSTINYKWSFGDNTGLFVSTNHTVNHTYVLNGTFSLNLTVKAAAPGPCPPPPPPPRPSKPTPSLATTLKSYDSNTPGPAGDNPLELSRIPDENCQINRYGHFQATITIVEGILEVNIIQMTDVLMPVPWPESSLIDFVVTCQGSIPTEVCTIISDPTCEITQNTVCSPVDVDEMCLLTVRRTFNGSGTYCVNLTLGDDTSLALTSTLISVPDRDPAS
Method: Certain antibodies, described herein were binned in accordance with the protocol described in U.S. Patent Application Publication No. 20030157730. MxhIgG conjugated beads are prepared for coupling to primary antibody. The volume of supernatant needed is calculated using the following formula: (n+10)×50 μL (where n=total number of samples on plate). Where the concentration is known, 0.5 μg/mL is used. Bead stock is gently vortexed, then diluted in supernatant to a concentration of 2500 of each bead per well or 0.5×10^5/mL and incubated on a shaker in the dark at RT overnight, or 2 hours if at a known concentration of […]. Following aspiration, 50 μL of each bead is added to each well of filter plate, then washed once by adding 100 μL/well wash buffer and aspirating. Antigen and controls are added to filter plate 50 μL/well then covered and allowed to incubate in the dark for 1 hour on shaker. Following a wash step, a secondary unknown antibody is added at 50 μL/well using the same dilution (or concentration if known) as is used for the primary antibody. The plates are then incubated in the dark for 2 hours at RT on shaker followed by a wash step. Next, 50 μL/well biotinylated mxhIgG diluted 1:500 is added and allowed to incubate in the dark for 1 hour on shaker at RT. […]

TK10 = assay: Anti GPNMB antibody mediated indirect cell killing (saporin secondary antibody-toxin conjugate, colony count); assay type: cell-based; settings: primary antibody 50 ng/mL plus goat anti-human IgG-saporin 100 ng/well
Method: UACC-62, a GPNMB antigen expressing cell line, and TK10, a non-expressing cell line were plated onto flat bottom 96-well tissue culture plates (Becton Dickinson, Franklin Lakes, N.J., USA) at a density of 3000 cells per well. Once the cells reached ˜25% confluency, 100 ng/well of secondary antibody-toxin conjugate (goat anti-human IgG-saporin; Advanced Targeting Systems, San Diego, USA, HUM-ZAP; cat. # IT-22) was added. Anti-GPNMB MAbs 2.10.2, 2.22.1, 1.15.1 or isotype control mAb (pK16.3) were added to each well at a final concentration of 10 or 50 ng/mL. An anti-EGFR monoclonal antibody (MS-269-PABX, NeoMarkers, Fremont, Calif., USA) was used as a positive primary antibody control. Chemotherapy reagent 5-FU at 600 uM was used as a positive reagent control. On day 5, the cells were trypsinized, transferred to 6-well tissue culture plates and incubated at 37° C. Plates were examined daily and between 8-10 days, all plates were Giemsa stained and colonies were counted.

melanoma cell lines = assay: Clonogenic assay with 1.15.1-AE; assay type: cell-based, human; settings: various concentrations
Method: Melanoma cell lines were plated onto flat bottom 96-well tissue culture plates (Becton Dickinson, Franklin Lakes, N.J., USA). On day 2 or when cells reach ˜25% confluency, various concentrations of unconjugated and Auristatin E-conjugated 1.15.1 were added to cells. MAb 2.6.2-AE was also used as a conjugated isotype control in this study. On day 5, the cells were trypsinized, transferred to 6-well tissue culture plates and incubated at 37° C. Plates were examined daily. On days 8-10, all plates were Giemsa stained and colonies on the plates were counted.

SK-Mel-2 cells = assay: Apoptosis analysis (Annexin V-FITC / propidium iodide); assay type: cell-based, human; settings: SK-Mel-2, 48 hour, 1000 ng/mL
Method: (§1) Briefly, cells were pulsed at the indicated times with 30 μM of bromodeoxyuridine (BrdU, Sigma) for 30 min, harvested, fixed and permeabilized in methanol. Nascent DNA synthesis was detected by anti-bromodeoxyuridine-FITC (BD Biosciences, San Jose, Calif.) staining. Total DNA content was detected using propidium iodide (PI, Sigma). For apoptosis analysis, cells were treated as above and labeled with Annexin V-FITC followed by propidium iodide exclusion using the Annexin V-FITC Apoptosis Detection kit I (BD PharMingen, San Diego, Calif.) according to the manufacturer's protocols. Flow cytometry (as described in the previous Example) was used to assay both cell cycle and apoptosis studies.
(§2) To investigate this possibility, analysis of apoptosis using Annexin-V surface binding and loss of propidium iodide (PI) exclusion was performed.

TK-10 cells = assay: as above; assay type: cell-based, human; settings: TK-10, 48 hour, 1000 ng/mL
Method: as §1, §2

B1: Mab1.15.1 (protein, listed as Homo sapiens)
chain: QVQLQESGPGLVKPSQTLSLTCTVSGGSISSFNYYWSWIRHHPGKGLEWIGYIYYSGSTYSNPSLKSRVTISVDTSKNQFSLTLSSVTAADTAVYYCARGYNWNYFDYWGQGTLVTVSSA
Bin (GPNMB): Bin 2
cell death in GPNMB negative TK10 cells (TK10): less than 24%
effect on growth of all the melanoma cell lines tested (melanoma cell lines): no effect on growth
% AnnV+/PI+ UR (SK-Mel-2 cells): 0.45%
% AnnV+/PI− LR (SK-Mel-2 cells): 4.74%
% AnnV−/PI+ UL (SK-Mel-2 cells): 0.36%
% AnnV+/PI+ UR (TK-10 cells): 0.34%
% AnnV+/PI− LR (TK-10 cells): 0.55%
% AnnV−/PI+ UL (TK-10 cells): 0.83%
